Assay results from patent US11912777 (NANJING LEADS BIOLABS, dated 2024).

Experiments:
[1] = molecular target: T1, human 4-1BB (Sino Biological, Cat #10041-H08H) (human, UniProt Q07011 24-186); test: ELISA, protein coated
T1 construct: Bought reagent coated on ELISA plates

[2] = molecular target: T2, human CD40 (Sino Biological, Cat #10774-H08H) (human, UniProt P25942 21-193); test: ELISA, protein coated
T2 construct: Bought reagent coated on ELISA plates

[3] = molecular target: T3, human OX40 (Sino Biological, Cat #10481-H08H) (human, UniProt P43489 29-216); test: ELISA, protein coated
T3 construct: Bought reagent coated on ELISA plates
T3 sequence (looked up): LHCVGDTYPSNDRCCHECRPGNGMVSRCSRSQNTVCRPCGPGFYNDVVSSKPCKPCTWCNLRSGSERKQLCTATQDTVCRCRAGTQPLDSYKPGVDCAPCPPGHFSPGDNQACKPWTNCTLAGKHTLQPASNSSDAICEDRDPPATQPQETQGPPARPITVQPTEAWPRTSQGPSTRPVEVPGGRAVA

[4] = molecular target: T4, human GITR (Sino Biological, Cat #13643-H08H) (human, UniProt Q9Y5U5 26-161); test: ELISA, protein coated
T4 construct: Bought reagent coated on ELISA plates
T4 sequence (looked up): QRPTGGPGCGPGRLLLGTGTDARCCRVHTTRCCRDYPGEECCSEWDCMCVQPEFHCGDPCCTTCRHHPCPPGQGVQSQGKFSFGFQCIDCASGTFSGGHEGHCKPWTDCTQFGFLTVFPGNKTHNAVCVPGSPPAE

[5] = molecular target: T5, human CD27 (Sino Biological, Cat #10039-H31H) (human, UniProt P26842 20-192); test: ELISA, protein coated
T5 construct: Bought reagent coated on ELISA plates
T5 sequence (looked up): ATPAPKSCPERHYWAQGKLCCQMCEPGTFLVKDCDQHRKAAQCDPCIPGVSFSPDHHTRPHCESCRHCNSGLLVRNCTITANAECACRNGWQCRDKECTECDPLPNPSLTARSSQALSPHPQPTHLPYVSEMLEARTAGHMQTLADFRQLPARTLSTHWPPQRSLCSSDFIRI

[6] = molecular target: T6, human HVEM (Sino Biological, Cat #10334-H03H) (human, UniProt Q92956 39-202); test: ELISA, protein coated
T6 construct: Bought reagent coated on ELISA plates
T6 sequence (looked up): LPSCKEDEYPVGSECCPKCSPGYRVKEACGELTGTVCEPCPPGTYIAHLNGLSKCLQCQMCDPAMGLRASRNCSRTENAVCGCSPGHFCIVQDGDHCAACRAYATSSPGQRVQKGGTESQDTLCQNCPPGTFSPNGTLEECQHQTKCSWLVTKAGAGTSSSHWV

[7] = molecular target: T7, human TNFR2, mouse Fc-tag (human); test: ELISA, huTNFR2-mFc coated
T7 construct: also called hTNFR2-mFc; huTNFR2-mFc
T7 chain: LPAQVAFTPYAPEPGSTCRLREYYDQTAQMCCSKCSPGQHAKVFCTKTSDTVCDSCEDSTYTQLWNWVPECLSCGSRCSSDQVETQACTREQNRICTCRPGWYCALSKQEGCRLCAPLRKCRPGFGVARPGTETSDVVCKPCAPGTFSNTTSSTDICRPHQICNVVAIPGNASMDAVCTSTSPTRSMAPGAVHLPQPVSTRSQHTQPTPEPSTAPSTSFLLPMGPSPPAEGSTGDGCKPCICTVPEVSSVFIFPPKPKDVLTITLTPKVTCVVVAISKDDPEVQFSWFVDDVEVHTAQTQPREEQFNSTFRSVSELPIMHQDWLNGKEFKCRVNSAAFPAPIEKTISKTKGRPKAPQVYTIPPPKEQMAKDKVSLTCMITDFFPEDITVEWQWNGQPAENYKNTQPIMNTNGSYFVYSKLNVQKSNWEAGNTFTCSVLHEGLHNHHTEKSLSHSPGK

[8] = molecular target: T8, mouse TNFR2 variant 019-1 (human segment 17T-54D) (mouse with a human segment); test: ELISA, TNFR2 variant coated at 0.5 µg/mL
T8 construct: Mouse TNFR2 extracellular domain with the human segment, followed by a human Fc

[9] = molecular target: T9, mouse TNFR2 variant 019-3 (human segment 98T-141K) (mouse with a human segment); test: ELISA, TNFR2 variant coated at 0.5 µg/mL
T9 construct: Mouse TNFR2 extracellular domain with the human segment, followed by a human Fc

[10] = molecular target: T10, mouse TNFR2 variant 019-5 (human segment 39G-75C) (mouse with a human segment); test: ELISA, TNFR2 variant coated at 0.5 µg/mL
T10 construct: Mouse TNFR2 extracellular domain with the human segment, followed by a human Fc

[11] = molecular target: T11, mouse TNFR2 variant 019-0.5-1 (human segment 17T-31C) (mouse with a human segment); test: ELISA, TNFR2 variant coated at 0.5 µg/mL
T11 construct: Mouse TNFR2 extracellular domain with the human segment, followed by a human Fc

[12] = molecular target: T12, mouse TNFR2 variant 019-0.5-2 (human segment 1L-16S) (mouse with a human segment); test: ELISA, TNFR2 variant coated at 0.5 µg/mL
T12 construct: Mouse TNFR2 extracellular domain with the human segment, followed by a human Fc; also called 019-0-0.5-2

[13] = molecular target: T13, mouse TNFR2 variant 019-0-0.5 (human segment 1L-31C) (mouse with a human segment); test: ELISA on coated variant 019-0-0.5, epitope mapping; upper panel
T13 construct: Mouse TNFR2 extracellular domain with the human segment, followed by a human Fc

TNFR2 = test: ELISA on coated TNFR2, positive control of the TNFR superfamily cross-binding test; lower panel
[14] = molecular target: T14, human TNFR2 expressed on the cell surface of 293T cells (human, UniProt P20333 23-461); test: flow cytometry, blocking of Biotin-TNF-alpha binding to human TNFR2 on 293T cells; right panel; unit from the axis
T14 construct: also called HuTNFR2; human TNFR2 on cell surface
T14 sequence: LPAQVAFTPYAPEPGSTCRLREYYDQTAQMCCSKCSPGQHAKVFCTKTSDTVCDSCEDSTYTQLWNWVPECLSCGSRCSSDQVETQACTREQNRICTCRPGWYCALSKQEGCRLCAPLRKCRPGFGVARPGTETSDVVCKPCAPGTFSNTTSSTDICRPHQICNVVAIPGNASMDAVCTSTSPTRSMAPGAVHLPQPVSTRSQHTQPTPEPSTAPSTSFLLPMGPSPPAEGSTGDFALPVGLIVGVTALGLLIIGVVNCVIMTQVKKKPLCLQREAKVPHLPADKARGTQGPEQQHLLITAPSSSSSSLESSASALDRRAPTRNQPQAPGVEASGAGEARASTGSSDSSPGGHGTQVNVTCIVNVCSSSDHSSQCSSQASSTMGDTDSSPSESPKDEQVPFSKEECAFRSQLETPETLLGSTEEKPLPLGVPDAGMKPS

[15] = molecular target: T7, human TNFR2, mouse Fc-tag; test: blocking ELISA: hTNFR2-mFc mixed with antibody, binding to coated TNF-alpha his tag; right panel; unit from the axis [b]

T2 sequence (P25942 21-193 limits assumed): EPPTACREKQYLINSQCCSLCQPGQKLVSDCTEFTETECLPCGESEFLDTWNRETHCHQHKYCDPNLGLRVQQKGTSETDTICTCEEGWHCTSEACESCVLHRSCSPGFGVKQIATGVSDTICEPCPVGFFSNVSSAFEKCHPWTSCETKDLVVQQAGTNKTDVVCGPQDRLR
T10 sequence (chain, as listed by the source mutant limits assumed): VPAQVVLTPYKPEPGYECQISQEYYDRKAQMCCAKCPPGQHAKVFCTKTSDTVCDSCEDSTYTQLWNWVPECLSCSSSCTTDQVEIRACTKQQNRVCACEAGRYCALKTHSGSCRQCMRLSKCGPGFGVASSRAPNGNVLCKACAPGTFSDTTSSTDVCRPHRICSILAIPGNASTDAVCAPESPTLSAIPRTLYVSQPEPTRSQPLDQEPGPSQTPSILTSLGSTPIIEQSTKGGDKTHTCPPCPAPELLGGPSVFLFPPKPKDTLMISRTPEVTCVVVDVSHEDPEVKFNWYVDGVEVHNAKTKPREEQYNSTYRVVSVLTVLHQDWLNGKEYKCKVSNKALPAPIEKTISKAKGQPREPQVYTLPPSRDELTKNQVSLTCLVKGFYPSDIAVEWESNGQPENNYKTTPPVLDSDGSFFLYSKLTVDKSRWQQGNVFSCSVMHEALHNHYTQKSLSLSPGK
T11 sequence (chain, as listed by the source mutant limits assumed): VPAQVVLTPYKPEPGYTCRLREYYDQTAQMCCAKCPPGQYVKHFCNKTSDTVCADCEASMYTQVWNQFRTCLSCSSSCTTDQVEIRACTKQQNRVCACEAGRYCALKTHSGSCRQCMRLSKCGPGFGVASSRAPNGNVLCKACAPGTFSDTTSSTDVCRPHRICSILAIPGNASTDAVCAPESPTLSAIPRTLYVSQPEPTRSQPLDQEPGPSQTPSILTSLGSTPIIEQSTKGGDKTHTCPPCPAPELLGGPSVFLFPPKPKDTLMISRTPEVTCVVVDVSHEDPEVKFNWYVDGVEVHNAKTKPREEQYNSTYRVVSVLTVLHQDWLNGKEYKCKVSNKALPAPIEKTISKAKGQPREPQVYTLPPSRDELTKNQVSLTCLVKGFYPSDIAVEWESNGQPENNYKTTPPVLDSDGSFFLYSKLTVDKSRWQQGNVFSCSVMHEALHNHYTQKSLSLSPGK
T9 sequence (chain, as listed by the source mutant limits assumed): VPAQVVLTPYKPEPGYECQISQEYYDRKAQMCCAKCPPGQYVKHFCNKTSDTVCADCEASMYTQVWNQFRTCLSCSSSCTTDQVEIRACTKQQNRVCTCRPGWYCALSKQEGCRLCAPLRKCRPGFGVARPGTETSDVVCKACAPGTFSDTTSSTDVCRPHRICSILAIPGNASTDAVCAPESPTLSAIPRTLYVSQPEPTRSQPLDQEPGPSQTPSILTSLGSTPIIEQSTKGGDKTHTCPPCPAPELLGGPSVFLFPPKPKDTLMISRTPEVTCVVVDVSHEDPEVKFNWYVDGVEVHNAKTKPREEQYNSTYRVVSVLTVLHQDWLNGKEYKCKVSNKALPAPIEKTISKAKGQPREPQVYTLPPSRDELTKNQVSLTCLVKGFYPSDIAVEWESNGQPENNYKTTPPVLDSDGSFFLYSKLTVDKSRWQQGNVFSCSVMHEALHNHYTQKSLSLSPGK
T8 sequence (chain, as listed by the source mutant limits assumed): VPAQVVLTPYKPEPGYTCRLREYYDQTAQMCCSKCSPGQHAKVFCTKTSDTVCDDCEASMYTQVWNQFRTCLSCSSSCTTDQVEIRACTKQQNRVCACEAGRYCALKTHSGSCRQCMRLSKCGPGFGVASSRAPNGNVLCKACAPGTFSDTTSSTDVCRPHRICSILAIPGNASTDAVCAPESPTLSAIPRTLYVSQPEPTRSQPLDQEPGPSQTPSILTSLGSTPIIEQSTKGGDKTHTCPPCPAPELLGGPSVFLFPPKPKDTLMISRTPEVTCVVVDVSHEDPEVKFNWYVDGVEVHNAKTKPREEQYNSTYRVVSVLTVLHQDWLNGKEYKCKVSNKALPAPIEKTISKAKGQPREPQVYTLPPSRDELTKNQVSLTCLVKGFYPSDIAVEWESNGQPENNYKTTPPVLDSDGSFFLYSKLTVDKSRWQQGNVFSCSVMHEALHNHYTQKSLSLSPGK
T12 sequence (chain, as listed by the source mutant limits assumed): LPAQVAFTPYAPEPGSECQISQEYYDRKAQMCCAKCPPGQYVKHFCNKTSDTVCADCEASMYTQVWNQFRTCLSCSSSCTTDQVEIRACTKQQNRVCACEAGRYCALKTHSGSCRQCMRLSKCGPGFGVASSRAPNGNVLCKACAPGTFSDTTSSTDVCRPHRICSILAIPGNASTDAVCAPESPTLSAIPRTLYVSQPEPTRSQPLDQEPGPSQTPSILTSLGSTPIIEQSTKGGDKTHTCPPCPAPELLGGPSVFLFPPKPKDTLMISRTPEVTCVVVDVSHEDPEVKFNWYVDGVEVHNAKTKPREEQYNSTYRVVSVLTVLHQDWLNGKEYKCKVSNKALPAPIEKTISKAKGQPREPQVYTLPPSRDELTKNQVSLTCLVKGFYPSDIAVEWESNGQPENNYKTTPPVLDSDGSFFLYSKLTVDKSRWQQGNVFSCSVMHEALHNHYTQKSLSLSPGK

EC50 [7]: 0.0508 nM
EC50 (read off the curve) [13]: ~6 ng/mL
EC50 (read off the curve) (TNFR2): ~0.06 nM
IC50 [14]: 11 nM
IC50 [15]: 0.282 nM
B1: humanized antibody hu3-E (Hu3-H3/Hu3-L1) (antibody, human IgG1, kappa, V domains shown)
VH: QIQLVQSGAEVKKPGASVKVSCKASGYTFTTYGMSWVRQAPGQGLEWMGWIHTYSGVPTYADDFKGRFAFTLDTSTSTAYMELRSLRSDDTAVYYCARGLYGVDYWGQGTLVTVSS
VL: EIVMTQSPATLSLSPGERATLSCKASENVVTYVSWYQQKPGQAPRLLIYGASNRYTGIPARFSGSGSATDFTLTISSLQPEDFAVYYCGQSYTYPYTFGQGTKLEIKR
notes: Humanized form of 43B7A4, human IgG1/kappa
binding result [1]: no binding (tested: starting concentration 0.4 µg/mL)
binding result [2]: no binding (tested: starting concentration 0.4 µg/mL)
binding result [3]: no binding (tested: starting concentration 0.4 µg/mL)
binding result [4]: no binding (tested: starting concentration 0.4 µg/mL)
binding result [5]: no binding (tested: starting concentration 0.4 µg/mL)
binding result [6]: no binding (tested: starting concentration 0.4 µg/mL)
binding result [8]: no binding (tested: starting concentration 0.4 µg/mL)
binding result [9]: no binding (tested: starting concentration 0.4 µg/mL)
binding result [10]: no binding (tested: starting concentration 0.4 µg/mL)
binding result [11]: no binding (tested: starting concentration 0.4 µg/mL)
binding result [12]: no binding (tested: starting concentration 0.4 µg/mL)
